Laboratory results taken from the supplement of paper PMC11908140.

B1: library; numbered along this chain (parent)
chain: MRKPRAAVGSGHRKQAASQEGRQKHAKNNSQAKPSACDGLARQPEEVVLQASVSSYHLFRDVAEVTAFRGSLLSWYDQEKRDLPWRRRAEDEMDLDRRAYAVWVSEVMLQQTQVATVINYYTGWMQKWPTLQDLASASLEEVNQLWAGLGYYSRGRRLQEGARKVVEELGGHMPRTAETLQQLLPGVGRYTAGAIASIAFGQATGVVDGNVARVLCRVRAIGADPSSTLVSQQLWGLAQQLVDPARPGDFNQAAMELGATVCTPQRPLCSQCPVESLCRARQRVEQEQLLASGSLSGSPDVEECAPNTGQCHLCLPPSEPWDQTLGVVNFPRKASRKPPREESSATCVLEQPGALGAQILLVQRPNSGLLAGLWEFPSVTWEPSEQLQRKALLQELQRWAGPLPATHLRHLGEVVHTFSHIKLTYQVYGLALEGQTPVTTVPPGARWLTQEEFHTAAVSTAMKKVFRVYQGQQPGTCMGSKRSQVSSPCSRKKPRMGQQVLDNFFRSHISTDAHSLNSAAQ

Variants of: B1
Assay: 8OG:A repair function score (normalized; synonymous = 0, nonsense = -1) (normalized log-likelihood score); higher = more repair activity (WT-like)
Settings: with 8OG:A DNA repair reporter (GFP) in HEK-293 MUTYH KO cells
Protocol: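 Saturation mutagenesis (NNN codon scan) of the MUTYH cDNA (521-aa nuclear isoform NM_001048174.1 / NP_001041639), stably expressed under doxycycline induction in HEK-293 MUTYH knockout cells. Cells were co-transfected with an 8OG:A-bearing GFP repair reporter plus mCherry and sorted 72 h later into GFP+ and GFP− bins, three replicates per tile. The Rosace log2 enrichment (GFP+ vs GFP−) was converted per tile to a normalized function score with synonymous variants centered at 0 and nonsense variants (codons 1-471) at -1; low-abundance variants were removed.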

Variant | 8OG:A repair function score
R98Q | -0.236
R98W | -0.0663
R98M | -0.316
R98N | -0.122
R98K | -0.0169
R98P | -0.714
R98H | -0.232
R98L | -0.107
R98S | -0.2
R98I | -0.145
R98Y | -0.0815
R98T | -0.164
R98V | -0.16
A99C | -0.408
A99T | -0.459
A99R | -1.8
A99K | -1.18
A99I | -0.617
A99F | -1.14
A99S | -0.124
A99L | -0.788
A99G | -0.0185
A99N | -1.45
A99Y | -0.837

Variant | 8OG:A repair function score
A99E | -1.34
A99H | -1.07
A99Q | -2.46
A99V | -0.708
A99D | -3
A99W | -1.08
A99M | -0.378
A99P | -0.584
Q113A | -0.108
Q113V | -0.43
Q113M | -0.593
Q113H | -0.405
Q113D | -0.327
Q113S | -0.0696
Q113P | -0.116
Q113N | -0.167
Q113C | -0.133
Q113R | 0.032
Q113K | -0.158
Q113F | -0.237
Q113Y | 0.0661
Q113T | 0.157
Q113W | -0.172
Q113I | -0.279

Variant | 8OG:A repair function score
Q113E | -0.529
Q113G | -0.109
Q113L | -0.239
A101E | -0.00955
A101C | -0.00146
A101D | -0.0136
A101P | -0.398
A101G | -0.024
A101S | 0.00626
A101T | -0.047
A101I | -0.0179
A101V | -0.0177
A101M | -0.0323
A101N | -0.0446
A101K | -0.0477
A101R | -0.0207
A101Y | -0.0479
A101W | -0.762
A101L | -0.0936
A101Q | -1.09
A101H | -0.0529
A101F | -0.00851
W103P | -1.09
W103G | -0.73

Variant | 8OG:A repair function score
W103F | -0.399
W103C | -0.655
W103Q | -0.686
W103M | -0.283
W103K | -1.37
W103Y | -0.166
W103L | -0.377
W103N | -1.2
W103V | -0.986
W103D | -1.19
W103T | -0.833
W103H | -0.97
W103R | -1.22
W103I | -1.17
W103S | -1.14
W103A | -0.808
W103E | -1.13
S105C | -0.577
S105N | -0.802
S105W | -0.677
S105A | -0.0215
S105G | -0.13
S105P | -0.822
S105K | -1.25

Variant | 8OG:A repair function score
S105F | -1.43
S105E | -0.676
S105R | -0.765
S105L | -0.798
S105V | -0.566
S105H | -0.786
S105I | -0.549
S105D | -0.841
S105Q | -0.69
S105M | -0.981
S105Y | -1.24
S105T | -0.804
Q110C | -0.75
Q110V | 0.0461
Q110P | -0.29
Q110F | -1.24
Q110H | -0.0864
Q110R | -0.82
Q110A | -2.51
Q110L | -0.353
Q110S | -1.26
Q110G | 0.0252
Y100H | -1.01
Y100A | -1.95

Variant | 8OG:A repair function score
Y100L | -1.29
Y100P | -2.33
Y100K | -1.96
Y100S | -1.56
Y100C | -1.66
Y100D | -1.79
Y100G | -1.64
Y100T | -1.56
Y100V | -1.41
Y100Q | -1.23
Y100N | -1.17
Y100F | -0.679
Y100M | -1.24
Y100R | -1.63
Y100I | -1.67
Y100E | -1.42
T112G | -0.908
T112P | -1.38
T112M | -1.06
T112H | -0.634
T112S | -0.314
T112C | -0.907
T112K | -1.01
T112R | -0.922

Variant | 8OG:A repair function score
T112V | -0.914
T112N | -0.879
T112Q | -0.591
T112A | -1.03
T112E | -0.925
T112Y | -1.19
T112W | -1.35
T112I | -1.18
T112D | -1.3
T112F | -1.17
T112L | -1.42
A115N | 0.178
A115D | -0.0868
A115H | 0.0405
A115S | -0.0518
A115M | -0.164
A115T | -0.106
A115C | -0.0964
A115L | -0.0647
A115P | -0.0424
A115G | -0.0228
A115K | -0.0104
A115E | 0.0471
A115W | -0.182

Variant | 8OG:A repair function score
A115Y | -0.206
A115R | 0.092
A115V | 0.00984
A115F | -0.146
A115Q | -0.0206
A115I | -0.0495
Q111L | -0.931
Q111N | -0.242
Q111C | -0.764
Q111D | -0.941
Q111W | -0.869
Q111P | -1.13
Q111A | -0.258
Q111T | -0.764
Q111Y | -1.17
Q111H | -0.591
Q111S | -0.201
Q111F | -1.08
Q111V | -0.38
Q111G | -0.557
Q111E | -1.24
Q111M | -1.12
Q111R | -0.248
Q111K | -0.553

Variant | 8OG:A repair function score
Q111I | -1.18
L109S | -0.213
L109P | -1
L109N | -0.45
L109I | -1.04
L109G | -0.659
L109A | 0.00548
L109E | -1.07
L109D | -1.16
L109Q | -0.022
L109W | -0.957
L109Y | -1.24
L109H | -0.619
L109M | -0.105
L109C | -0.0119
L109R | -1.05
L109V | -0.838
L109F | -0.916
L109T | -0.266
L109K | -0.951
M108R | -1.2
M108G | -1.18
M108P | -1.2
M108T | -0.981

Variant | 8OG:A repair function score
M108F | -0.641
M108L | -0.662
M108H | -1.36
M108W | -1.11
M108Y | -0.819
M108N | -1.18
M108D | -0.793
M108E | -0.887
M108S | -1.28
M108V | -1.11
M108C | -0.99
M108I | -0.761
M108K | -1.01
M108A | -1.06
M108Q | -0.453
V114W | -0.527
V114D | -0.453
V114R | -0.297
V114Y | -0.241
V114I | -0.181
V114E | -0.932
V114Q | -0.313
V114A | 0.0344
V114G | -0.449

Variant | 8OG:A repair function score
V114T | -0.141
V114N | -0.367
V114S | -0.184
V114F | -0.42
V114H | -0.935
V114L | -0.441
V114M | -1.07
V114C | -0.178
V114P | -1.09
V114K | -0.435
T116I | -0.262
T116F | -0.000589
T116A | -0.122
T116D | -1.03
T116C | -0.0685
T116H | 0.0217
T116G | -0.179
T116E | -0.305
V104T | -0.472
V104P | -1.01
V104D | -1.33
V104Q | -1.17
V104I | -0.19
V104A | -0.365

Variant | 8OG:A repair function score
V104M | -0.192
V104N | -1.04
V104E | -0.936
V104C | -0.133
V104Y | -1.27
V104W | -0.707
V104G | -0.976
V104S | -0.759
V104K | -0.731
V104H | -1.31
V104R | -1.11
V104F | -1.1
V104L | -0.583
E106C | -1.19
E106K | -1.45
E106V | -1.33
E106S | -1.21
E106F | -0.995
E106G | -1.3
E106Y | -1.24
E106R | -1.42
E106A | -0.944
E106M | -0.994
E106D | -0.903

Variant | 8OG:A repair function score
E106H | -1.74
E106P | -1.62
E106I | -1.13
E106Q | -1.51
E106W | -1.04
E106L | -1.25
E106N | -1.72
E106T | -1.01
V102C | -0.092
V102A | -0.644
V102T | -0.0943
V102D | -0.89
V102H | -2.8
V102W | -1.13
V102S | -0.376
V102N | -1.28
V102E | -1.11
V102Y | -1.01
V102Q | -0.275
V102M | -0.352
V102K | -1.71
V102R | -1.41
V102I | -0.00401
V102L | -0.259

Variant | 8OG:A repair function score
V102F | -0.714
V102P | -1.21
V102G | -1.36
V107E | -0.669
V107G | -0.0408
V107F | -0.314
V107K | -0.731
V107R | -0.87
V107P | -1.01
V107Q | -0.746
V107W | -0.894
V107I | 0.0887
V107D | -1.44
V107S | -0.135
V107M | 0.0622
V107H | -0.608
V107N | -0.735
V107C | -0.0803
V107A | 0.0286
V107T | -0.0133
V107Y | -0.533
V107L | -0.266
